Measurements published in article PMC4176178, “An evolutionarily conserved interaction of tumor suppressor protein Pdcd4 with the poly(A)-binding protein contributes to translation suppression by Pdcd4” (Nucleic Acids Research, 2014).

B1: mouse His-PABP-RRM1–4 (amino acids 1–375) (domain or fragment, UniProt P29341 1-375, looked up)
chain: MNPSAPSYPMASLYVGDLHPDVTEAMLYEKFSPAGPILSIRVCRDMITRRSLGYAYVNFQQPADAERALDTMNFDVIKGKPVRIMWSQRDPSLRKSGVGNIFIKNLDKSIDNKALYDTFSAFGNILSCKVVCDENGSKGYGFVHFETQEAAERAIEKMNGMLLNDRKVFVGRFKSRKEREAELGARAKEFTNVYIKNFGEDMDDERLKELFGKFGPALSVKVMTDESGKSKGFGFVSFERHEDAQKAVDEMNGKELNGKQIYVGRAQKKVERQTELKRKFEQMKQDRITRYQGVNLYVKNLDDGIDDERLRKEFSPFGTITSAKVMMEGGRSKGFGFVCFSSPEEATKAVTEMNGRIVATKPLYVALAQRKEERQ
notes: Vector was a gift from Lorna Waters; source: bacterially expressed, purified (Ni-NTA)
B2: GST-Pdcd4-RBDstop (only the N-terminal RNA-binding domain of human Pdcd4) (domain or fragment, UniProt Q53EL6 1-154, looked up)
chain: MDVENEQILNVNPADPDNLSDSLFSGDEENAGTEEIKNEINGNWISASSINEARINAKAKRRLRKNSSRDSGRGDSVSDSGSDALRSGLTVPTSPKGRLLDRRSRSGKGRGLPKKGGAGGKGVWGTPGQVYDVEEVDVKDPNYDDDQENCVYET
notes: translation stop codon introduced at amino acid position 155; The last residue 154 follows from the stop codon at position 155; also called pGex-6P2-hPdcd4-RBDstop; source: purified

Key:
[1] = target: T1, GST-Pdcd4 (full-length human Pdcd4 fused to GST) (human, UniProt Q53EL6 1-469); assay: pull-down; GST fusion protein-loaded sepharose beads incubated with purified, bacterially expressed His-PABP-RRM1–4; western blotting with PABP antibodies or Coomassie staining; also in the absence or presence of 0.5 μg/ml RNase A; details: both partners purified
T1 construct: programmed cell death 4 (Pdcd4), human, full length; also called GST-Pdcd4-wt; pGex-6P2-hPdcd4wt; source: purified
T1 sequence (looked up): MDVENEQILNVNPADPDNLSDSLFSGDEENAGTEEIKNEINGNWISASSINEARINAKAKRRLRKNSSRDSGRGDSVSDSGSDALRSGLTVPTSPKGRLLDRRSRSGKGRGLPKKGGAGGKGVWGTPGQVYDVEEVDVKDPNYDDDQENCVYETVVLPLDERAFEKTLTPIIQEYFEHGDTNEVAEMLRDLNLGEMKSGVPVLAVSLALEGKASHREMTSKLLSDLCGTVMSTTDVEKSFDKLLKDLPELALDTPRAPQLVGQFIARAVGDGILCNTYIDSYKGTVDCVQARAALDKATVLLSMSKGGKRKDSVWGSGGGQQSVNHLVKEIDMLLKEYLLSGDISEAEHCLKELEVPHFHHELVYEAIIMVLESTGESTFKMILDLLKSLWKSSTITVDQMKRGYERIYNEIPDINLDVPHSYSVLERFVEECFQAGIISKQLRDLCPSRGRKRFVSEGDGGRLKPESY

[2] = target: B1; assay: as above; details: both partners purified

| Binder | binding result [1] | binding result [2] |
| --- | --- | --- |
| B1 | binds |  |
| B2 |  | binds |
